Data set [1] has as its target T1, HNRNPH1 (hnRNP H1) isoform A (UniProt P31943 P31943:1-449).
T1 sequence: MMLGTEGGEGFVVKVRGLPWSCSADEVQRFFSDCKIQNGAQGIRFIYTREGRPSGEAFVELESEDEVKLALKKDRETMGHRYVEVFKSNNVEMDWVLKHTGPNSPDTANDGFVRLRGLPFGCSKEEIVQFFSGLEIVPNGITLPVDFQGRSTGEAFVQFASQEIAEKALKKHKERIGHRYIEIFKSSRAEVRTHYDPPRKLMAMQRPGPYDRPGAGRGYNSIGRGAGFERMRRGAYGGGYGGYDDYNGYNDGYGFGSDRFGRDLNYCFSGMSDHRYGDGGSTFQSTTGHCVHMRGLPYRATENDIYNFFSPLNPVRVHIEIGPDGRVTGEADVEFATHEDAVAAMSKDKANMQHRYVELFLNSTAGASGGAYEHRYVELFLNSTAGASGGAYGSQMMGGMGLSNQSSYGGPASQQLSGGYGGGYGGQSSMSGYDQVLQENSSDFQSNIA
The data set can be described thus: MST; value only in figure; same buffer as INCR1. Particulars: label: 3' FAM (MST); 32P (EMSA). Here is the method:
(§1) Microscale thermophoresis. MicroScale Thermophoresis experiments were performed according to the NanoTemper technologies protocol in a Monolith NT.115Pico (red/blue) instrument (NanoTemper Technologies). Serial dilutions of HNRNPH1 were done using a buffer containing 50 mM Tris [pH 8.0], 300 mM KCl, 0.02% NP-40, 10% Glycerol, and 0.5 mg/ml Heparin. RNA oligos were labeled with a FAM moiety at their […] (IDT). The RNA concentration was kept constant at 20 nM throughout the experiments. The RNA-protein mixture was incubated at room temperature for 15 mins before running into the MST instrument. The experiments were performed using 40% and 60% MST power and between 20%-80% LED power at 22_C. The MST traces were recorded using the standard parameters: 5 s MST power off, 30 s medium MST power on and 5 s MST power off. The reported measurement values are the combination of two effects: the fast, local environment dependent responses of the fluorophore to the temperature jump and the slower diffusive thermophoresis fluorescence changes. The data presented here are the average of 3 independent experiments. Average normalized fluorescence (%) was plotted against HNRNPH1 concentration to determine the binding constant (Kd). Ligand depletion model with one binding site was used (Using GraphPad Prism 8) to fit the binding which follows the following model: Y=Bmax*X/(Kd+X).

Data set [2] has as its target T1, HNRNPH1 (hnRNP H1) isoform A. The data set can be described thus: MST; value only in figure; 20 nM RNA, 50 mM Tris pH 8.0, 300 mM KCl, 0.02% NP-40, 10% glycerol, 0.5 mg/ml heparin, 22 C. Particulars: label: 3' FAM (MST). As for the experimental part: as §1

Take AUACGUGGGAGUGGGGUGCUGAGCUGGGCAGGGUGAGAGUAU (ssRNA) [JAK2 RNA oligo]: in data set [1], the binding result is “binds”.

UAAGGGGUGAGGGGCAGGAGAAUGGGUAUGGAUGGAGGUAGA (ssRNA) [PD-L1 RNA oligo]: the binding result in data set [1] was “binds”. For the molecule GGGGCGGGCCGGUUGCCGGGGGGAGCUGGAGUCACGUGACGGC (ssRNA) [INCR1 RNA oligo], in data set [2], the binding result was “binds”.

The values above are taken from US20240167098, “METHODS FOR PREDICTING TREATMENT OUTCOME TO CHECKPOINT INHIBITORS IN CANCER” (The Brigham and Women`s Hospital, Inc., published 2024).
